B1: PIDD DD (777-883) (domain or fragment, UniProt Q9HB75 777-883, looked up)
chain: LNLGDAETGFLTQSNLLSVAGRLGLDWPAVALHLGVSYREVQRIRHEFRDDLDEQIRHMLFSWAERQAGQPGAVGLLVQALEQSDRQDVAEEVRAVLELGRRKYQDS
notes: PIDD (p53-induced protein with a death domain), death domain, residues 777-883; also called PD-DD; PIDD death domain; source: E. coli BL21 (DE3) RILP, purified (Ni-NTA, size exclusion S-200)
B2: RAIDD DD (94-199), wild type (domain or fragment)
chain: not shown
notes: RAIDD (RIP-associated Ich-1/Ced-3 homologous protein with a death domain), death domain, residues 94-199; also called RD-DD; RAIDD death domain; source: E. coli BL21 (DE3) RILP, purified (Ni-NTA, size exclusion S-200)

Experiments:
[1] = target: T1, full-length RAIDD (1-199), wild type (UniProt P78560 1-199); assay: SEC; RAIDD (full length, DD or mutant) mixed with a molar excess of PIDD DD, 30 min at room temperature; Superdex 200 HR 10/30 in 20 mM Tris-HCl pH 8.0, 150 mM NaCl; fractions on SDS-PAGE, Coomassie; conditions: both partners purified
T1 construct: RAIDD, full length, residues 1-199 (CARD and DD); also called RD; wild-type full-length RAIDD; source: E. coli BL21 (DE3) RILP, purified (Ni-NTA, size exclusion S-200)
T1 sequence (P78560 whole entry, the tested form may be a part): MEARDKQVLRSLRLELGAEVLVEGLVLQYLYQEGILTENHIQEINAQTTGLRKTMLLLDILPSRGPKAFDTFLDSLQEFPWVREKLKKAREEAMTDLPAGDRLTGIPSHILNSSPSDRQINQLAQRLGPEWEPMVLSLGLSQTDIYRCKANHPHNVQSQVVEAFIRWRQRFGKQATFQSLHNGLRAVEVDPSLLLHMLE

PIDD DD (777-883) = target: B1; assay: as above; conditions: both partners purified

| Binder | binding result [1] | binding result (PIDD DD (777-883)) |
| --- | --- | --- |
| B1 | binds |  |
| B2 |  | binds |

Reference: publication PMC6169973, “RAIDD mutations underlie the pathogenesis of thin lissencephaly (TLIS)” (PLoS ONE, 2018)
